Assay [1] has as its target T1, human Tyro3 (rhTyro3/Dtk-Fc chimera) (Homo sapiens, UniProt Q06418).
T1 construct: Soluble recombinant antigens corresponding to the extracellular domains of members of the human TAM receptor family; purchased R&D Systems 859-DK
T1 sequence (Q06418 41-429 limits assumed): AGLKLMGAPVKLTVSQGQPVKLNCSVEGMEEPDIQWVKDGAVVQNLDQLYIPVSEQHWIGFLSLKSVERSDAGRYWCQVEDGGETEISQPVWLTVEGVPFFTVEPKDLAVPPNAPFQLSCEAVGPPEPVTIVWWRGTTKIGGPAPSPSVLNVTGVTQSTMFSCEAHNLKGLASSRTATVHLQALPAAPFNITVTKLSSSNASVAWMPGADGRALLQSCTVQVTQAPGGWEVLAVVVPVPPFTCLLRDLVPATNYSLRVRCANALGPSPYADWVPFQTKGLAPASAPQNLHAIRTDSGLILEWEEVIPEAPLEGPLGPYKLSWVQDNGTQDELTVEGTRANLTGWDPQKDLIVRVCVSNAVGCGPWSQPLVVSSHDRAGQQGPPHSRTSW
In words: Biacore binding analysis on immobilized human Tyro3. As to conditions: 10 μg/mL, 25° C. As for the experimental part: All binding experiments were performed using Biacore 3000 instrument (GE Healthcare) at 25° C. Soluble recombinant antigens corresponding to the extracellular domains of members of the human TAM receptor family, Axl (rhAxl-Fc chimera; R&D Systems, Cat. no. 154-AL), Mer (rhMer-Fc chimera; R&D Systems, Cat. no. 891-MR) and Tyro3 (rhTyro3/Dtk-Fc chimera; R&D Systems, Cat. no. 859-DK) were immobilized on the surface of CM5 sensor chip using amine coupling at the surface density of 393.0, 303.6 and 364.0 resonance units (RU), respectively. The Biacore run was performed in an automatic mode using Binding analysis wizard. Samples containing either MAb 10C9 or MAb 10G5 at concentration 10 μg/mL in HBS-EP buffer (GE Healthcare) were injected over the surfaces with immobilized antigens at flow rate of 30 μL/min for 3 min (association) followed by 5 min dissociation.
(§1) The binding experiments were performed using Biacore 3000 instrument (GE Healthcare) at 25° C. The soluble recombinant antigens corresponding to human Axl (rhAxl-Fc chimera; R&D Systems, Cat. no. 154-AL), mouse Axl (rmAxl-Fc chimera; R&D Systems, R&D Systems; Cat. no. 854-AX) and human Tyro3 (rhTyro3/Dtk-Fc chimera; R&D Systems, Cat. no. 859-DK) were immobilized on the surface of CM5 sensor chip using amine coupling at the surface density of 1,308.0, 2,115.9 and 1,429.0 RU, respectively. The Biacore runs were performed in an automatic mode using Binding analysis wizard.
(§2) The sample containing either MAb 10C9, MAb 10G5 or recombinant mouse (rm) Axl-ligand Gas6 (R&D Systems, Cat. no. 986-GS/CF) at concentration 10 μg/mL in HBS-EP buffer (GE Healthcare) was injected over the surfaces with immobilized antigens at flow rate of 30 μL/min for 3 min (association) followed by 5 min dissociation.
Background: SPR reads the build-up and loss of mass on a sensor chip optically.

Assay [2] deals with T2, mouse Axl (rmAxl-Fc chimera) (Mus musculus, UniProt Q00993).
T2 construct: The soluble recombinant antigens corresponding to human Axl (rhAxl-Fc chimera; R&D Systems, Cat. no; 154-AL), mouse Axl (rmAxl-Fc chimera; purchased R&D Systems 854-AX
In words: Biacore binding analysis on immobilized mouse Axl. As to conditions: 10 μg/mL, 25° C. As for the experimental part: as §1, §2

A further assay has as its target T3, rhAxl-Fc (Homo sapiens, UniProt P30530).
T3 construct: Soluble recombinant antigens corresponding to the extracellular domains of members of the human TAM receptor family; purchased R&D Systems 154-AL
In words: Biacore competitive binding study on rhAxl-Fc (two sample injection). The following applies: for competition for Axl binding with control antibody MAB154 / inhibition of Gas6 binding to Axl: rhAxl saturated with antibody; for competition for Axl binding with control antibody MAB154: then MAB154 at 25 μg/mL; for inhibition of Gas6 binding to Axl: then rhGas6 or rmGas6 at 25 μg/mL; for blocking of binding of the other antibody (10C9 / 10G5) to Axl: rhAxl saturated with first antibody, second antibody at 25 μg/mL. As for the experimental part: A competitive binding study was performed using Biacore 3000 instrument (GE Healthcare) and Binding Analysis wizard with several cycles of two samples injection. As a first sample, a saturating concentration of MAb 10C9 (790 nM or 120 μg/mL) or 10G5 (160 nM or 24 μg/mL) was injected over the surface of a CM5 sensor chip coated with rhAxl-Fc (using amine coupling) for 3 min at flow rate of 30 μL/min followed by 2.5 min stabilization (HBS-EP buffer alone) before the injection of the second sample. The following second samples were used: recombinant human (rh) Gas6 (R&D Systems, Cat. no. 885-GS), recombinant mouse (rm) Gas6 (R&D Systems, Cat. no. 986-GS/CF) and a panel of anti-Axl antibodies, such as MAB154 (R&D Systems, Cat. no. MAB154), 10C9 and 10G5; all at concentration 25 μg/mL. The second sample was injected for 3 min, followed by 2.5 min stabilization (buffer alone) and regeneration of the surface by 30 sec injection of a regeneration solution (10 mM HCl, 1 M NaCl) at flow rate 50 μL/min.

For the next assay, the system named is MDA-MB-231. In words: Growth of MDA-MB-231 cells in three-dimensional (3D) organotypic model. The following applies: for growth and tumour mass development in extracellular matrix: MDA-MB-231, 50-100 μg/mL, day 6, versus control irrelevant IgG. It counts as cell-based, human. As for the experimental part: A highly aggressive triple-negative human breast cancer cell line MDA-MB-231 (ATCC® HTB-26™) was cultured according to recommended conditions in Dulbecco's Modified Eagle's Medium/Nutrient Mixture F-12 Ham medium supplemented with 10% foetal bovine serum (FBS), glutamine and penicillin and streptomycin. The cells were pre-treated in suspension for at least 1 hour at 37° C., to ensure proper binding of antibodies on the cell surface before they were placed in extracellular matrix. The cells cultures were observed every day and fresh treatments were done every other day. The antibodies were used at concentrations 50-100 μg/mL. Imaging of coverslip 3D assay (35 mm dish) was done on a NIKON light microscopy using both Phase contrast and Hoffman optics. Already at day 3, difference in growth of cells treated with either MAb 10C9 or MAb10G5 and cells treated with a control irrelevant IgG was observed.

“Also recorded” adds a separate entry of the source.

T2 sequence (Q00993 19-445 limits assumed, change not shown): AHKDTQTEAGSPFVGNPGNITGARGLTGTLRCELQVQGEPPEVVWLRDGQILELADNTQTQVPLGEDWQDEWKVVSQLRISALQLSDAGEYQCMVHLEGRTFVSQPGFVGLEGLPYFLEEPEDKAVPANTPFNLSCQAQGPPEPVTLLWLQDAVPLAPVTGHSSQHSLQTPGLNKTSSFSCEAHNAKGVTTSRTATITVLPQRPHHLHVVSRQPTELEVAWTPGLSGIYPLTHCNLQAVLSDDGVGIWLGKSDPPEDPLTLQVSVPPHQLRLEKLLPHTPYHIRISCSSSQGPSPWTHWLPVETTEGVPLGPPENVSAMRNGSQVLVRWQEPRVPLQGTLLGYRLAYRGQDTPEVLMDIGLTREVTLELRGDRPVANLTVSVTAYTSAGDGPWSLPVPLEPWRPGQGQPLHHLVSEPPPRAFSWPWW

B1: 10C9: mouse anti-Axl monoclonal antibody from hybridoma UT-10C9-B9, IgG2b; VH SEQ ID NO: 3, VL SEQ ID NO: 4 (antibody, listed as Mus musculus, V domains shown)
VH: QVQLQQPGPELVKPGASVKISCKTSDYNFTRYYIHWVKQRPGQGLEWIGWIYPGTGDSKYNEKFKGRATLTADTSSSTAYMQLSSQTSEDSAVYFCARNGNYWYFDVWGAGTAVTVSS
VL: DIVMTQAAPSGPVTPGESVSISCRSSKSLLHSNGNTYLYWFLQRPGQSPQLLIYRMSNLASGVPDRFSGSGSGTAFTLRISRVEAEDVGIYYCMQHREYPFTFGGGTKLEIK
Turning to B1, the “binding to human Tyro3” value in assay [1] is reported as “no binding”. In assay [1] (listed as 1009), the “binding to human Tyro3” value is recorded as “no significant binding”. The “binding to mouse Axl” value in assay [2] is listed as “no binding”. Besides, in the assay with rhAxl-Fc, the “competition for Axl binding with control antibody MAB154” value is recorded as “did no inhibit; also recorded: did not compete”, the “inhibition of Gas6 binding to Axl” value was “inhibit the binding of Axl to its ligand Gas6; also recorded: cannot be bound; also recorded: inhibited Axl binding by its ligand Gas6” and the “blocking of binding of the other antibody (10C9 / 10G5) to Axl” value was “cannot be bound; also recorded: blocked binding of each other”. In the assay on MDA-MB-231, the “growth and tumour mass development in extracellular matrix” value was “significantly inhibited growth and tumour mass development”.

B2: 10G5: mouse anti-Axl monoclonal antibody from hybridoma WR-10G5-E5, IgG1; VH SEQ ID NO: 21, VL SEQ ID NO: 22 (antibody, listed as Mus musculus, V domains shown)
VH: QVQLQQSGAELVRPGASVKLSCKASGYSFTDFYINWVRQRPGQGLEWIARIFPGGDNTYYNEKFKGKATLTAEESSSTAYIQLSSLTSEDSAVYFCARRGLYYAMDYWGQGISVTVSS
VL: DVLMTQTPLSLPVSLGDQASISCRSSQSLVHSNGIPYLHWYLQKPGQSPKLLIYRVSNRFSGVPDRFSGSGSGTDFTLKISRVEAEDLGVYFCSQGTHVPPTFGGGTKLEIK
In the case of B2, the “binding to human Tyro3” value in assay [1] was “no significant binding”. In addition, the “binding to mouse Axl” value in assay [2] is on record as “no binding”. Besides, in the assay with rhAxl-Fc, the “competition for Axl binding with control antibody MAB154” value is “did not compete”, the “inhibition of Gas6 binding to Axl” value is “inhibit the binding of Axl to its ligand Gas6; also recorded: inhibited Axl binding by its ligand Gas6” and the “blocking of binding of the other antibody (10C9 / 10G5) to Axl” value is “blocked binding of each other”. Moreover, the “viability of treated cells (nuclei staining)” value with MDA-MB-231 (MDA-MB-231 3D culture) is on record as “still viable”. For the same molecule, the “growth and tumour mass development in extracellular matrix” value in the assay with MDA-MB-231 is “significantly inhibited growth and tumour mass development”.

These data come from patent US10208121B2, “Anti-Axl antagonistic antibodies” (BERGEN TEKNOLOGIOVERFORING AS, priority 2014, dated 2019).
